B1: H4H18462P2 (antibody, human IgG4, V domains shown)
VH: EVQLVESGGDLVQPGRSLRLSCAASGFTFSSFAMSWVRQAPGRGLEWVSSLSDSGDNTYYADSVKGRFTISRDNSKNTLYLQMNNLRAEDTAVYYCAKDLFSGWLFHGFDVWGQGTMVTVSS
VL: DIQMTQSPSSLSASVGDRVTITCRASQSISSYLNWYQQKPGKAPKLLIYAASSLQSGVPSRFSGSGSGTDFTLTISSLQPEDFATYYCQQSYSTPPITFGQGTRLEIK
notes: Fully human variable regions; H4H prefix = human IgG4 Fc
B2: H4H17322P2 (antibody, human IgG4, V domains shown)
VH: QLQLQESGPGLVKPSETLSLTCTVSGASISSSRFYGGWIRQPPGKGLEWIGDIYYSGNTYYNPSLQSRVTISVDTSKNQFSLKLSSVTAADTAVYYCARHLMITFGGLIVEGFDIWGQGTMVTVSS
VL: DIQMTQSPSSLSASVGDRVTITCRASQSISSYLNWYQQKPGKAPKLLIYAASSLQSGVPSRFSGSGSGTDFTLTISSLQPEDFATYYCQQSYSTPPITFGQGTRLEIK
notes: as for B1

Assays:
[1] = target: T1, recombinant mouse LEPR extracellular domain expressed with a C-terminal myc-myc-hexahistidine tag (mouse, UniProt P48356 22-839); test: SPR, captured mAb, 37 C
T1 construct: Monomeric construct; also called mLEPR.MMH; mLEPR-MMH
T1 sequence (P48356 other isoform, or with tags, fused parts or gaps): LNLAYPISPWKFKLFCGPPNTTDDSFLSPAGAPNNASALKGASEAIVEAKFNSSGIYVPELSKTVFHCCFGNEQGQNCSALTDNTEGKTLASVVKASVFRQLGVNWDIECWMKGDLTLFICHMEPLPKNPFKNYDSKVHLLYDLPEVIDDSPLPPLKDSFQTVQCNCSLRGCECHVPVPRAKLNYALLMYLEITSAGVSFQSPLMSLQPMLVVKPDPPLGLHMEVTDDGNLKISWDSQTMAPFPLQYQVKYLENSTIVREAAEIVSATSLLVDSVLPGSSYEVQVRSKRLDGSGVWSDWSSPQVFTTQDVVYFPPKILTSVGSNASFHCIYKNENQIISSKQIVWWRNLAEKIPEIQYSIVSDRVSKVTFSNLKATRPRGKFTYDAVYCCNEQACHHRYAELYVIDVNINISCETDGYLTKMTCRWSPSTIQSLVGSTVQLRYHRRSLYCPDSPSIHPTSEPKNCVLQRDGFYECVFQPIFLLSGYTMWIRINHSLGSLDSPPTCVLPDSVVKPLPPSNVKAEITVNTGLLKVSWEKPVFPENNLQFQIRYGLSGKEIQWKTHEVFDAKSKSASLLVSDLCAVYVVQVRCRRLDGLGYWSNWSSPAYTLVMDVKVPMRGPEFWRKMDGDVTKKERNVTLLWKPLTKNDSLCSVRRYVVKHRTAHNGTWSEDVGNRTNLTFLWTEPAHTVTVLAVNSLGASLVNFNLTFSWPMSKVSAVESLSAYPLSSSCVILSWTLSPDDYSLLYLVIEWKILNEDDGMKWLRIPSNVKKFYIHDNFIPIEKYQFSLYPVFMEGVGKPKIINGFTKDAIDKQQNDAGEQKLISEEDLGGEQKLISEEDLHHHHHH
Protocol: (§1) Equilibrium dissociation constants (KD values) for antigen binding to purified anti-LEPR monoclonal antibodies of the invention were determined using a real-time surface plasmon resonance biosensor using a Biacore 4000 instrument. All binding studies were performed in running buffer containing 10 mM HEPES, 150 mM NaCl, 3 mM EDTA, and 0.05% v/v Surfactant Tween-20, pH 7.4 (HBS-ET running buffer) at 25° C. and 37° C. The Biacore sensor surface was first derivatized by amine coupling with a monoclonal mouse anti-human Fc antibody (GE, #BR-1008-39) to the capture anti-LEPR monoclonal antibodies. […] The dissociation of monoclonal antibody bound LEPR reagent was monitored for 10 minutes in HBS-ET running buffer. Kinetic association (kₐ) and dissociation (kd) rate constants were determined by fitting the real-time binding sensorgrams to a 1:1 binding model with mass transport limitation using Scrubber 2.0c curve-fitting software. Binding dissociation equilibrium constants (KD) and dissociative half-lives (t½) were calculated from the kinetic rate constants as: […]

[2] = target: T2, recombinant rat LEPR extracellular domain expressed with a C-terminal myc-myc-hexahistidine tag (rat, UniProt Q62959 22-839); test: SPR, captured mAb, 25 C
T2 construct: Monomeric construct; also called rLEPR.MMH; rLEPR-MMH
T2 sequence (Q62959 other isoform, or with tags, fused parts or gaps): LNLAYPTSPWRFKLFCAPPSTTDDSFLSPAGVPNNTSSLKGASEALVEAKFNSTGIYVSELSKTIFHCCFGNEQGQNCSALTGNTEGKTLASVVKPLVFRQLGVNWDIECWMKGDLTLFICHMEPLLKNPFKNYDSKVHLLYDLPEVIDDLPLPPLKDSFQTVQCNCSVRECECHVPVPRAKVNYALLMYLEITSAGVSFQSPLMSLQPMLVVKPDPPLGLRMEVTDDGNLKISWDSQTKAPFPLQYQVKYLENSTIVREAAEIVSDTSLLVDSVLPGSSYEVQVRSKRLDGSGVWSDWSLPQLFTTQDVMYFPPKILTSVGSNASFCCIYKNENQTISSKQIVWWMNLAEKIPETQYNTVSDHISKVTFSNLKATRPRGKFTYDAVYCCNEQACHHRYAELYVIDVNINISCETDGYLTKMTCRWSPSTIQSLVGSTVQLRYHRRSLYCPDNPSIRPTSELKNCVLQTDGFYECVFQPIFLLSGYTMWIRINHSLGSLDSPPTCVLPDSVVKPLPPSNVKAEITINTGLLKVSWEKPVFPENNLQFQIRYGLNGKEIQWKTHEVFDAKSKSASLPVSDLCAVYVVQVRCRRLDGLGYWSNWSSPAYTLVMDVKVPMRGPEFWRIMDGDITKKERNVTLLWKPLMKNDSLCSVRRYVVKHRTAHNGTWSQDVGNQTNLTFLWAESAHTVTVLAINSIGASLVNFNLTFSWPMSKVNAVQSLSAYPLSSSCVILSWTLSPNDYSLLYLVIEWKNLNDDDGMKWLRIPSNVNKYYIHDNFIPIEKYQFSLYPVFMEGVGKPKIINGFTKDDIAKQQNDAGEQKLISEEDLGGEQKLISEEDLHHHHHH
Protocol: as §1

| Binder | 100 nM mLEPR-MMH Bound (RU) [1] [RU] | 100 nM rLEPR-MMH Bound (RU) [2] [RU] |
| --- | --- | --- |
| B1 | 3 | – |
| B2 | – | 10 |

— patent publication US20230235068A1 (published 2023)
